These results are taken from patent publication US12213977B2, “Methods and compositions for treating melanoma” (THE REGENTS OF THE UNIVERSITY OF CALIFORNIA, priority 2017, dated 2025).

In this experiment the test system is melanoma cell lines. Description: Immunoblot of differentiation biomarkers (AXL, NGFR, MITF, MART-1) and pERK. Format: cell-based, human. The conditions noted are these: IFNγ=100 U/mL, TNFα=1000 U/mL; M229, M397, M249. On the procedure: Cells were lysed in modified RIPA buffer (50 mM Tris-HCl (pH 7.5), […], 10 mM β-glycerophosphate, 1% NP-40, 0.25% sodium deoxycholate, 10 mM sodium pyrophosphate, 30 mM sodium fluoride, 1 mM EDTA, 1 mM vanadate, 20 μg/ml aprotinin, 20 μg/ml leupeptin, and 1 mM phenylmethylsulfonyl fluoride). Whole-cell lysates were resolved by SDS-PAGE on TruPAGE 4-15% gradient gels (Sigma-Aldrich) and blotted onto nitrocellulose membranes. Membranes were blocked overnight with 5% milk and then incubated sequentially with primary and then IRDye-conjugated secondary antibodies (Li-Cor). Blots were imaged using the Odyssey Infrared Imaging System (Li-Cor). Primary antibodies used for Western blot analysis were MITF (DGG7V, CST), MART-1 (A103, SCBT), and AXL (C89E7, CST).
(In western blotting, separated proteins are transferred to a membrane and probed.)

B1: IFNγ: Recombinant IFNγ, cytokine secreted by T cells, obtained from Peprotech (protein, UniProt P01579 24-161, looked up)
Interferon gamma: QDPYVKEAENLKKYFNAGHSDVADNGTLFLGILKNWKEESDRKIMQSQIVSFYFKLFKNFKDDQSIQKSVETIKEDMNVKFFNSNKKKRDDFEKLTNYSVTDLNVQRKAIHELIQVMAELSPAAKTGKRKRSQMLFRG
On to B1, for which the “differentiation state (up-regulation of AXL, decreased MITF or MART-1)” value is “induced de-differentiation”.
